Test results taken from patent publication US20110165066A1 (AbbVie / Abbott, published 2011).
Values joined by “and” are separate entries in the source; they are usually repeats but may differ in a detail not shown here. Identical values can stand only once. Blank lines part the entries; values can stand above or below the binder they belong to.

What was measured:
[1] = target: T1, human IL-13 wild type (human, UniProt P35225 35-146); assay: SPR (Biacore)
T1 construct: also called h IL-13; h IL-13 wt
T1 sequence (P35225 other isoform, or with tags, fused parts or gaps limits assumed): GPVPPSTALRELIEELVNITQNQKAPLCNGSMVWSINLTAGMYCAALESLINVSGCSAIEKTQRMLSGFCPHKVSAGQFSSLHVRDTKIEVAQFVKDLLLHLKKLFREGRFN
Description: (§1) The BIACORE assay (Biacore, Inc, Piscataway, N.J.) determines the affinity of antibodies with kinetic measurements of on-, off-rate constants. […] All chemicals were obtained from Biacore® AB (Uppsala, Sweden) or otherwise from a different source as described in the text. Approximately 5000 RU of goat anti-mouse IgG, (Fcγ), fragment specific polyclonal antibody (Pierce Biotechnology Inc, Rockford, Ill.) diluted in 10 mM sodium acetate (pH 4.5) was directly immobilized across a CM5 research grade biosensor chip using a standard amine coupling kit according to manufacturer's instructions and procedures at 25 μg/ml. Unreacted moieties on the biosensor surface were blocked with ethanolamine. Modified carboxymethyl dextran surface in flowcell 2 and 4 was used as a reaction surface. Unmodified carboxymethyl dextran without goat anti-mouse IgG in flow cell 1 and 3 was used as the reference surface. For kinetic analysis, rate equations derived from the 1:1 Langmuir binding model were fitted simultaneously to association and dissociation phases of all eight injections (using global fit analysis) with the use of Biaevaluation 4.0.1 software. Purified antibodies were diluted in HEPES-buffered saline for capture across goat anti-mouse IgG specific reaction surfaces. Mouse antibodies to be captured as a ligand (25 μg/ml) were injected over reaction matrices at a flow rate of 5 μl/min. The association and dissociation rate constants, kₒₙ (unit M⁻¹s⁻¹) and koff (unit s⁻¹) were determined under a continuous flow rate of 25 μl/min Rate constants were derived by making kinetic binding measurements at ten different antigen concentrations ranging from 10-200 nM. […] Binding is recorded as a function of time and kinetic rate constants are calculated.

[2] = target: T1, human IL-13 wild type; assay: ELISA-based receptor binding assay, blocking biotin-IL-13 binding to IL-13Rα2/Fc
Description: After 16 hr, coating solution was removed by flicking plate contents in sink, and plates were washed and blocked 4 times with Superblock Blocking Buffer (240 ul/well) (Pierce). […] Plates were washed 5 times with 300 ul 0.1% PBST, and then 100 ul of 1:5000 diluted mouse anti-Biotin MAb (Jackson Immunosciences) was added and incubated at RT for 45 min. The plates were washed again 5 times with 300 ul 0.1% PBST, followed by addition of TMB substrate reagent (100 ul/well, Pharmingen); developed for 5 min, and stopped by adding 50 ul of 2M H2SO4 (VWR). ODs at 450 nm were determined by spectrophotometry.

[3] = target: T1, human IL-13 wild type; assay: receptor binding assays (cell surface-based on IL-13Rα2-transfected COS cells and ELISA-based with IL-13Rα2/Fc), 13C5.5 blocking human IL-13 binding to human IL-13Rα2; range told over both assays
[4] = target: T1, human IL-13 wild type; assay: cell surface-based receptor binding assay, blocking 125I-IL-13 binding to IL-13Rα2-transfected COS cells
Description: Recombinant human IL-13 was labeled with ¹²⁵I (Amersham, Arlington Heights, Ill.), using IODO-GEN reagent (Pierce, Rockford, Ill.) as previously described (Obiri N I et al., (1995) J Biol Chem. 270:8797-8804). […] Transfected COS cells (5×10^5 cells in 100 μL binding buffer: RPMI 1640 containing 0.2% human serum albumin and 10 mmol HEPES) were incubated with 1.0 nM ¹²⁵I-IL-13 with or without 1 uM unlabeled IL-13 at 4° C. for 2 hours. Cell-bound ¹²⁵I-IL-13 was separated from unbound ¹²⁵I-IL-13 by centrifugation through a phthalate oil gradient, and radioactivity was determined with a gamma counter (Wallac, Gaithersburg, Md.).

[5] = target: T1, human IL-13 wild type; assay: SPR (Biacore); remark: listed apart in the source
[6] = target: T2, human IL-13 variant (R130Q) (human, UniProt P35225 35-146); assay: SPR (Biacore)
T2 construct: called R110Q in the assay descriptions (mature numbering); also called h IL-13v; hIL-13v
T2 sequence (P35225 35-146 limits assumed, stated change not applied): as the sequence (P35225 other isoform, or with tags, fused parts or gaps limits assumed) above, with R110Q counted along it

[7] = target: T1, human IL-13 wild type; assay: cell-based or functional assay
[8] = target: T2, human IL-13 variant (R130Q); assay: cell-based or functional assay
[9] = target: T1, human IL-13 wild type; assay: SPR (Biacore), mAb captured, IL-13 as analyte
[10] = target: cynomolgus IL-13 (cynomolgus, UniProt Q0PW92 21-132); assay: cell-based or functional assay
Sequence of cynomolgus IL-13 (Q0PW92 entry or part of it): as the sequence (P35225 other isoform, or with tags, fused parts or gaps limits assumed) above, with G1S, R10K, M42V, S67N, H83R, L100V, R110Q counted along it

[11] = target: T2, human IL-13 variant (R130Q); assay: cell-based or functional assay; remark: listed apart in the source
[12] = target: T2, human IL-13 variant (R130Q); assay: SPR (Biacore), mAb captured, IL-13 as analyte; row shifted, read as variant IL-13 columns
Description: as §1

[13] = target: T3, mouse IL-13 (mouse, UniProt P20109 26-131, limits assumed); assay: BIACORE against recombinant mouse IL-13
T3 construct: also called mIL-13; murine IL-13
T3 sequence (looked up): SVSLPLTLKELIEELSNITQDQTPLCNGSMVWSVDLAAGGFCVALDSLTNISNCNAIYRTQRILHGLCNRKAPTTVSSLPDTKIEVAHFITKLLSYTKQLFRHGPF

[14] = target: T3, mouse IL-13; assay: SPR (Biacore)
[15] = target: T3, mouse IL-13; assay: cell-based or functional assay
[16] = target: T2, human IL-13 variant (R130Q); assay: SPR (Biacore), mAb captured, IL-13 as analyte
[17] = target: T1, human IL-13 wild type; assay: cell-based or functional assay; remark: listed apart in the source
[18] = target: T3, mouse IL-13; assay: indirect ELISA, captured mAb, biotinylated mouse IL-13
[19] = target: T1, human IL-13 wild type; assay: blocking of IL-13 binding to IL-13Rα2, receptor binding assays

Kd [1]: 0.0701 nM | koff [1]: 0.000176 s⁻¹ | kon [1]: 2.51e+06 M⁻¹ s⁻¹ | IC50 [2]: 1.1 nM | IC50 [3]: ≥ 1 nM and ≤ 3 nM | IC50 [4]: 2.7 nM | Kd [5]: 0.07 nM | Kd [6]: 0.05 nM | Potency (IC50), A-549 bioassay [7]: 124 pM | Potency (IC50), A-549 bioassay [8]: 69 pM
B1: 13C5.5 (antibody, human IgG1, V domains shown)
VH: EVTLRESGPGLVKPTQTLTLTCTLYGFSLSTSDMGVDWIRQPPGKGLEWLAHIWWDDVKRYNPALKSRLTISKDTSKNQVVLKLTSVDPVDTATYYCARTVSSGYIYYAMDYWGQGTLVTVSS
VL: DIQMTQSPSSLSASVGDRVTISCRASQDIRNYLNWYQQKPGKAPKLLIFYTSKLHSGVPSRFSGSGSGTDYTLTISSLQPEDIATYYCQQGNTLPLTFGGGTKVEIK
notes: Humanized; The light chain row is printed 'VL 1305.5'; also called humanized 13C5; recombinant humanized antibody 13C5.5

binding result [9]: no binding | Average IC50, IL-13-induced TARC production by A-549 cells [10]: 0.797 nM | Average IC50, IL-13-induced TARC production by A-549 cells [11]: 0.58 nM | Kd [12]: 0.22 nM | koff [12]: 5.58e-05 s⁻¹ | kon [12]: 254000 M⁻¹ s⁻¹ | Kd [13]: 11.2 nM | Kd [14]: 12 nM | IC50, A-549 bioassay against recombinant mouse IL-13 [15]: 2.43 nM
B2: 3H7 (antibody, mouse IgG1, V domains shown)
VH: EVQLVESGGGLVKPGGSLKLSCAASGFTFSTYAMSWVRQTPEKRLEWVAGISSGGSYTYYPETMKGRFTISRDNARNTLYLQMSSLRSEDTAIYYCTRGSWGQGTSVTVSS
VL: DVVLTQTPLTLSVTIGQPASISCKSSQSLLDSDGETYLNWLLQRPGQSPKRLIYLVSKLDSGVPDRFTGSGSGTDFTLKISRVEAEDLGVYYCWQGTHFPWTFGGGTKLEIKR
notes: Murine monoclonal; also called mAb 3H7

Kd [9]: 0.112 nM | koff [9]: 6.5e-05 s⁻¹ | kon [9]: 579000 M⁻¹ s⁻¹ | Kd [16]: 0.0921 nM | koff [16]: 5.86e-05 s⁻¹ | kon [16]: 637000 M⁻¹ s⁻¹ | Average IC50, IL-13-induced TARC production by A-549 cells [10]: 0.64 nM | Average IC50, IL-13-induced TARC production by A-549 cells [17]: 0.106 nM | Average IC50, IL-13-induced TARC production by A-549 cells [11]: 0.17 nM | binding result [18]: no binding (tested: 0.1 to 100 ng/ml) | IC50 [19]: > 10 nM
B3: 9C11 (antibody, V domains shown)
VH: QVRLQQPGAELVRPGASVKLSCKASGYTFTSSWIHWVNQRPGQGLEWIGMIHPSDSETRLNQKFKDKATLTVDKSSSTAYMQLSSPTSEDSAVYYCASTATDFDYWGQGTTLTVSS
VL: DVVLTQTPLSLPVNIGDQASISCRSTQTLLNSDGFTYLDWYLQKPGQSPQLLIYLVSNRFSGVPDRFSGSGSGTDFTLKISRVEAEDLGVYYCFQNNYLPLTFGAGTKLELKR
